T1: Par(1-170) (Staphylococcus aureus plasmid pSK1, UniProt Q9L8I7 1-170)
T1 sequence: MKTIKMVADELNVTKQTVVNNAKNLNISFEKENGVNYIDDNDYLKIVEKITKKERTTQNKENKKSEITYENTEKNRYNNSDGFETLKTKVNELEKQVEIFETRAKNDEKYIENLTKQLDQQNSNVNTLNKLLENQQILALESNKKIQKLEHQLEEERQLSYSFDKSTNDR

B1: centromere repeat 4 (dsDNA)
DNA 1: ATGTTAGGCGGTAAACTA
DNA 2: TAGTTTACCGCCTAACAT
B2: pSK1 Par(78–170) (domain or fragment)
chain: NNSDGFETLKTKVNELEKQVEIFETRAKNDEKYIENLTKQLDQQNSNVNTLNKLLENQQILALESNKKIQKLEHQLEEERQLSYSFDKSTNDR
B3: palindromic 18-mer (crystallization site), FP (dsDNA)
DNA 1: ATGTTAGGTACCTAACTA
DNA 2: TAGTTAGGTACCTAACAT
B4: centromere repeat 6 (dsDNA)
DNA 1: ATGTTAGGTACTTAGCTA
DNA 2: TAGCTAAGTACCTAACAT
B5: pSK1 Par(1–170) (domain or fragment)
chain: T1 sequence
B6: half site mutant 18-mer (dsDNA)
DNA 1: ATGTTAGGTACCCGACTA
DNA 2: TAGTCGGGTACCTAACAT
B7: centromere repeat 1 (dsDNA)
DNA 1: ATGTTAGGTGCCTAACTA
DNA 2: TAGTTAGGCACCTAACAT
B8: centromere repeat 3 (dsDNA)
DNA 1: ATGTTAGGTGGTAAACTA
DNA 2: TAGTTTACCACCTAACAT
B9: centromere repeat 2/5/7 (dsDNA)
DNA 1: ATGTTAGGTAGTAAACTA
DNA 2: TAGTTTACTACCTAACAT

Columns and labels:
[1] = biological target: T1, Par(1-170); assay: fluorescence polarization
[2] = biological target: the molecule itself; assay: SEC

Row | Binder | Kd [1] [nM] | stoichiometry N [2]
1 | B1 | 140 ± 10 | –
2 | B2 | – | 4
3 | B3 | 43.4 ± 1.5 | –
4 | B4 | 90.2 ± 5.6 | –
5 | B5 | – | 4
6 | B6 | 195 ± 10.8 | –
7 | B7 | 67.5 ± 3.2 | –
8 | B8 | 62.7 ± 1.3 | –
9 | B9 | 66.5 ± 4.9 | –

From publication PMC9595883 (Journal of molecular biology, 2022)
